Data as given in the RNAGym collection of RNA variant scans (doi:10.1073/pnas.2313332121).
Variants at the floor of the assay were thinned out.

B1: TPR 5TU (parent)
chain: GGAUCUUCUCGAUCUAACAAAAAAGACAAAUCUGCCACAAAGCUUGAGAGCAUCUUCGGAUGCAGAGGCGGCAGCCUUCGGUGGCGCGAUAGCGCCAACGUUCUCAACUAUGACACGCAAAACGCGUGCUCCGUUGAAUGGAGUUUAUCAUG

Variants of: B1
Experiment: polymerase ribozyme fitness, log enrichment relative to wild type (log ratio); higher = more active; in vitro selection for triplet polymerase activity
Summary of the method: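 After PCR construction and transcription, each subunit's mutant library from a heterodimeric triplet polymerase ribozyme was annealed with a biotinylated primer, the partner subunit and triplets. Incubation was frozen, at −7 °C, and extended constructs were gel-excised, bound to streptavidin beads and amplified by RT-PCR, in one selection round done in triplicate. Fitness is the logarithm of a genotype's enrichment divided by that of the wild type, from inverse-variance-weighted replicate averages of Illumina-sequenced inputs and outputs. The base of the logarithm is 2, and genotypes needed ≥10 input reads and ≥1 read per output.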

Compared with GGAUCUUCUCGAUCUAACAAAAAAGACAAAUCUGCCACAAAGCUUGAGAGUAUCUUCGGAUGCAGAGGCGGCAGGCUUCGGUGGCGCAAUAGCGCCAACGUUCUCAACUAUGACACGCAAAACGCGUGCACCGUUGAAUGGAGUUUAUCAUG, GGAUCUUCUCGAUCUAACAAAAAAGACAAAUCUGCCACAAAGCUUGAGAGUAUCUUCGGAUGCAGAGGCGGCAGCCUUCGGUGGCGCGAUAGUGCCAACGUUCUCAACUAUGACACGCAAAACGCGUGCUCCGUUGAAUGGAGUUUAUCAUG is higher in “polymerase ribozyme fitness (log ratio)” value: no more than -4.2 for the first, -2.53 for the second.

First: GGAUCUUCUCGAUCUAACAAAAAAGACAAAUCUGCCACAAAGCUUGAGAGUAUCUUCGGAUGCAGAGGCGGCAGCCUUCGGUGGCGCGAUAGAGCCAACGUUCUCAACUAUGACACGCAAAACGCGUGCUCCGUUGAAUGGAGUUUAUCAUG
Second: GGAUCUUCUCGAUCUAACAAAAAAGACAAAUCUGCCACAAAGCUUGAGAGUAUCUUCGGAUGCAGAGGCGGCGGCCUUCGGUGGCGCGAUAUCGCCAACGUUCUCAACUAUGACACGCAAAACGCGUGCUCCGUUGAAUGGAGUUUAUCAUG
The “polymerase ribozyme fitness (log ratio)” value of the first is lower: -2.34 for the first, -0.595 for the second.

Going from GGAUCUUCUCGAUCUAACAAAAAAGACAAAUCUGCCACAAAGCUUGAGAGUAUCUUCGGAUGCAGAGGCGGCAGCCUUCGGUGGCGCGAUAGGGCCAACGUUCUCAACUAUGACACGCAAAACGCGUGCCCCGUUGAAUGGAGUAUAUCAUG to GGAUCUUCUCGAUCUAACAAAAAAGACAAAUCUGCCACAAAGCUUGAGAGUAUUUUCGGAUGCAGAGGCGGCAGCAUUCGGUGGCACGAUAGCGCCAACGUUCUCAACUAUGACACGCAAAACGCGUGCUCCGUUGAAUGGAGUUUAUCAUG, the “polymerase ribozyme fitness (log ratio)” value rises from -3.53 to -2.96.

First: GGAUCUUCUCGAUCUAACAAAAAAGACAAAUCUGCCACAAAGCUUGAGAGUAUCUUCGGAUGCAGAGGCGGCAGCUUUCGGUGGCGCGAUAGCGCUAACGUUCUCAACUAUGACACGCAAAACGCGUGCUCCGUUGUAUGGAGCUUAUCAAG
Second: GGAUCUUCUCGAUCUAACAAAAAAGACAAAUCUGCCACAAAGCUUGAGAGUAUCUUCGGAUGCAGAGGCGGCAGCCUUCGGUGGCGUGAUAGCGCCAACGUUCUCAACUAUGACACGCAAUACGCGUGCUCCGUUGAAUGGAGUUUAUCAUG
The “polymerase ribozyme fitness (log ratio)” value of the first is lower: no more than -4.2 for the first, -0.813 for the second.

First: GGAUCUUCUCGAUCUAACAAAAAAGACAAAUCUGCCACAAAGCUUGAGAGUAUCUUCGGAUGCAGAGGCGGCAGCCUUCGGUGGCGCGGUAGCGCCAACGUUCUCAACUAUGACACGCAAAACGCGUGCUCCGUUGAAUGUAGUUUAUCAUG
Second: GGAUCUUCUCGAUCUAACAAAAAAGACAAAUCUGCCACAAAGCUUGAGAGUAUCUUCGGAUGCAGAGGCGGCAGCCUUCGGUGGUGCGAUAGCGCCAACGUUCUCAACUAUGACACGCAAAACGCGUGCUCCGUUGAAUCGAGUUUAUCAUG
The “polymerase ribozyme fitness (log ratio)” value of the first is higher: -0.598 for the first, no more than -4.2 for the second.

Compared with GGAUCUUCUCGAUCUAACAAAAAAGACAAAUCUGCCACAAAGCUUGAGAGUAUCUUCGGAUGCAGAGGCGGCAGCCUUCGGUGGGGCGAUAGCGCCAACGUUCUCAACUAUGACCCGCAAAACGCGUGCUCCGUUGAAUGGAGUUUAUCAUG, GGAUCUUCUCGAUCUAACAAAAAAGACAAAUCUGCCACAAAGCUUGAGAGUAUCUUCGGAUGCAGAGGAGGCAGCCUUCGGUGUCGCGAUGGCGCCAACGUUCUCAACUAUGACACGCAAAACGCGUGCUCCAUUGAAUGGAGAUUUUCAUG is lower in “polymerase ribozyme fitness (log ratio)” value: -1.9 for the first, no more than -4.2 for the second.

First: GGAUCUUCUCGAUCUAACAAAAAAGACAAAUCUGCCACAAAGCUUGAGAGUAUCUUCGGAUGCAGAGGCGGCGGCCUUCGGUGGCGCGAUAUCGCCAACGUUCUCAACUAUGACACGCAAAACACGUGCUCCGUUGAAUGGAGUUUAUCAUG
Second: GGAUCUUCUCGAUCUAACAAAAAAGACAAAUCUGCCACAAAGCUUGAGAGUAUGUUCGGAUGCAGAGGCGGCAGCCUUCGGUGGUGCGAUAGCGCCAACGGUCUCAACUAUGACACGCAAAACGCGUGCUCCGUUGGAUGGAGGUUAUCAUG
The “polymerase ribozyme fitness (log ratio)” value of the first is higher: -0.37 for the first, no more than -4.2 for the second.

Going from GGAUCUUCUCGAUCUAACAAAAAAGACAAAUCUGCCACAAAGCUUGAGAGUAUCUUCGGAUGCAGAGGCGGCAGCCUUCGGUGGCGCGGUAGCGCCGACGUUCUCAACUAUGACACGCAAAACGCGUGCUCCGUUGAAUGGAUUUUAUCAUG to GGAUCUUCUCGAUCUAACAAAAAAGACAAAUCUGCCACAAAGCUUGAGAGUAUCUUCGGAUGCAGAGGCGGCAGCCUUCGGUGGCGCGGUAGCGCCAAUGUUCUCAACUAUGACACGCAAAACGCGUGCUCCGUUGAAUGGAGUUUAUCGUG, the “polymerase ribozyme fitness (log ratio)” value falls from -3.43 to -3.67.

Going from GGAUCUUCUCGAUCUAACAAAAAAGACAAAUCUGCCACAAAGCUUGAGAGUAUCUUCGGAUGCAGAGGUGGCAGCCUUCGGUGGCGCGAUAGCGCGAACGUUCUCAACUAUGACACGCAAAACGCGUGCUCCGUUGAAUGGAGUUUAUCAUG to GGAUCUUCUCGAUCUAACAAAAAAGACAAAUCUGCCACAAAGCUUGAGAGUAUCUUCGGAUGCAGAGGCGGCAGUCUUCGGUGGCGCAAUAGUACCAACGUUCUCAACUAUGACACGCAAAACGCGUGCUCCGUUCAAUGGAGUUUAUCAUG, the “polymerase ribozyme fitness (log ratio)” value falls from -3.06 to no more than -4.2.

For GGAUCUUCUCGAUCUAACAAAAAAGACAAAUCUGCCACAAAGCUUGAGAGUAUCUUCGGAUGCAGAGGCGGCAGUCUUCGGUGGCGCGAUAGCGCCAACGUUCUCAACUAUGACACGUAAAACGCGUGCUCCGUUGAAUGGAGUUUAUCAUG, the “polymerase ribozyme fitness (log ratio)” value was -1.3.
